Reference: patent US20220249685A1 (SILVERBACK THERAPEUTICS, published 2022)
Substitutions are numbered along the chain they refer to. Names and notes keep the numbering of the source.

B1: Antibody 55 (VH1-e G27Y, G55A, R66K, V67A, A71V / VKIII-L6) (antibody, V domains shown)
VH: QVQLVQSGAEVKKPGSSVKVSCKASGYTFSGYTMNWVRQAPGQGLEWMGLITPYNAASSYNQKFRGKATITVDKSTSTAYMELSSLRSEDTAVYYCARGGYDGRGFDYWGQGTTVTVSS
VL: EIVLTQSPATLSLSPGERATLSCSASSSVSYMHWYQQKPGQAPRLLIYDTSKLASGIPARFSGSGSGTDFTLTISSLEPEDFAVYYCQQWSKHPLTFGGGTKVEIK
B2: 55-IgG1-TLR8 conjugate (antibody, V domains shown)
VH: B1 VH
VL: B1 VL
modifications: cysteines freed by TCEP reduction may carry the drug-linker; positions not given; cysteines freed by TCEP reduction carry the TLR8 agonist drug-linker; positions not given
notes: also called 55-TLR8
B3: 56-IgG1-TLR8 conjugate (antibody, V domains shown)
VH: B1 VH with Y27G, K67R, A68V, V72A
VL: DIQMTQSPSTLSASVGDRVTITCSASSSVSYMHWYQQKPGKAPKLLIYDTSKLASGVPSRFSGSGSGTEFTLTISSLQPDDFATYYCQQWSKHPLTFGGGTKVEIK
modifications: cysteines freed by TCEP reduction may carry the drug-linker; positions not given; cysteines freed by TCEP reduction carry the TLR8 agonist drug-linker; positions not given
notes: also called 56-TLR8
B4: Antibody 56 (VH1-e CDRgraft G55A / VKI-L12) (antibody, V domains shown)
VH: B1 VH with Y27G, K67R, A68V, V72A
VL: B3 VL

molecular target: T1, human MSLN expressed on tumor cell lines (OVCAR3, NCI-N87) or on transfected HEK-293 cells (human, UniProt Q13421 296-598); assay: flow cytometry on NCI-N87 cells, anti-huIgG1-PE, MFI (Geo Mean)
T1 construct: whole, on cells; also called human mesothelin
T1 sequence (Q13421 other isoform, or with tags, fused parts or gaps limits assumed): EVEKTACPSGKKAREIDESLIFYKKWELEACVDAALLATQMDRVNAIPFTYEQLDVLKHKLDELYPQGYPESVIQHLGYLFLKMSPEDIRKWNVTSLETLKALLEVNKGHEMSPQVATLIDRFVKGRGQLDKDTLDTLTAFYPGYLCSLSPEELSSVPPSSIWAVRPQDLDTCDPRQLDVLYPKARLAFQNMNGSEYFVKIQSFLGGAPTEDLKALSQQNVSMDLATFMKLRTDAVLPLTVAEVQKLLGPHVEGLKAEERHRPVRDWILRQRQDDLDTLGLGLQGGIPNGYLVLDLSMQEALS

Binder | EC50 (read off the curve) [nM]
B1 | ~0.1
B2 | ~0.2
B3 | ~0.3
B4 | ~0.2

molecular target: T2, cynomolgus MSLN on transfected 293 cells (cynomolgus); assay: flow cytometry on 293 cells transiently transfected with cyno MSLN, anti-huIgG1-PE, MFI (Geo Mean)
T2 construct: whole, on cells; also called cyno MSLN; cynomolgus mesothelin

Binder | EC50 (read off the curve) [nM]
B1 | ~0.08
B2 | ~0.1
B3 | ~0.2
B4 | ~0.1
